What all share (conditions): both partners purified
Assay [1] has as its target T1, VWC2 domain of Chordin, mouse (mouse).
T1 construct: Chordin, mouse, von Willebrand factor type C domain 2 (VWC2); also called Chordin VWC2; VWC2 of Chordin; source: SF9 cells, purified as described [12]
Briefly: SPR; BIAcore 2000; VWC2 domain of Chordin immobilised, CV2 proteins perfused; apparent KD from koff/kon; 6 to 9 analyte concentrations, at least three independent experiments.

Assay [2] concerns the target T2, Chordin, full-length, mouse (mouse, UniProt Q9Z0E2 27-948).
T2 construct: Chordin, mouse, full-length; source: SF9 cells, purified as described [12]
T2 sequence (looked up): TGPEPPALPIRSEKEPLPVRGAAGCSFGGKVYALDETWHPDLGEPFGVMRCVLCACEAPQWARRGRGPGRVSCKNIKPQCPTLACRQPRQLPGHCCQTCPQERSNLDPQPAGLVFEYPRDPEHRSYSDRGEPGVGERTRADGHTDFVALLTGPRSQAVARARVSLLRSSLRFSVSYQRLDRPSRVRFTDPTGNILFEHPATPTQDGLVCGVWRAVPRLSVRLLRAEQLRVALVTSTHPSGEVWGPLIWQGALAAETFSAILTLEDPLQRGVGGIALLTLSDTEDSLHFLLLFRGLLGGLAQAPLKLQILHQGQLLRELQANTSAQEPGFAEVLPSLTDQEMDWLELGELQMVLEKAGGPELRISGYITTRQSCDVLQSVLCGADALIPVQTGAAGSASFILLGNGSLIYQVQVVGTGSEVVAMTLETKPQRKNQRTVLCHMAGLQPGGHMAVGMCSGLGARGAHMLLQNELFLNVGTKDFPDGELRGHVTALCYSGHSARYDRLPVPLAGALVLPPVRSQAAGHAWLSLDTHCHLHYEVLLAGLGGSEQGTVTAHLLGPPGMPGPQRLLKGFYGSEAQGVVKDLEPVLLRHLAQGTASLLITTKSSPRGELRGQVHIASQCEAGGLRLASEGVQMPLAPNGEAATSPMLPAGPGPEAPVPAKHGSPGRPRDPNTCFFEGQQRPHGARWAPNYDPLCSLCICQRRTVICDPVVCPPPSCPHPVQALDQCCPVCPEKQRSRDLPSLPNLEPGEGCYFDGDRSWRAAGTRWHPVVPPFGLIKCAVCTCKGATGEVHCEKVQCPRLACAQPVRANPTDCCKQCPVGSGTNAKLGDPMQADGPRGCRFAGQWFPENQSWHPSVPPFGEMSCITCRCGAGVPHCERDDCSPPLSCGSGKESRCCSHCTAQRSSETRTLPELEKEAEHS
Briefly: SPR; BIAcore 2000; Chordin immobilised, CV2 proteins perfused; apparent KD from koff/kon; 6 to 9 analyte concentrations, at least three independent experiments.

For assay [3], the target named is T3, BMP2, human (human, UniProt P12643 283-396).
T3 construct: Bone morphogenetic protein 2 (BMP2), human; The discussion speaks of 'the BMP dimer'; also called Bone morphogenetic protein 2; source: E. coli, purified as described [40]
Briefly: SPR; BIAcore 2000; BMP2 immobilised, CV2 proteins perfused; apparent KD from koff/kon; 6 to 9 analyte concentrations, at least three independent experiments. On the technique in general: Surface plasmon resonance follows binding to a sensor surface in real time, without labels.

We go through two molecules from publication PMC2944808, “Binding between Crossveinless-2 and Chordin Von Willebrand Factor Type C Domains Promotes BMP Signaling by Blocking Chordin Activity” (PLoS ONE, 2010).

T3 sequence (P12643 283-396): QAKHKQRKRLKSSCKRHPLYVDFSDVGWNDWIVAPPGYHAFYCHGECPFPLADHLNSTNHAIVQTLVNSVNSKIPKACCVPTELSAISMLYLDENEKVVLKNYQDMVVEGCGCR

B1: CV2-VWC1-4 (domain or fragment)
chain: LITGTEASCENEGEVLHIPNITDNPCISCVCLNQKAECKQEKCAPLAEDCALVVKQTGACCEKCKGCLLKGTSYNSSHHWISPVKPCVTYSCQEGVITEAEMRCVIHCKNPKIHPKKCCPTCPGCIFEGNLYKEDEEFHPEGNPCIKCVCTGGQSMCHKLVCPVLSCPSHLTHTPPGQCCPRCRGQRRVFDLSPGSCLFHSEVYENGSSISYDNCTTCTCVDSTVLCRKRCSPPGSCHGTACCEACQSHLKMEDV
Regarding B1, the Kd in assay [1] came out at 145 nM; in assay [2], 180 nM; in assay [3] it was 21 nM.

B2: CV2 ΔClip (domain or fragment)
chain: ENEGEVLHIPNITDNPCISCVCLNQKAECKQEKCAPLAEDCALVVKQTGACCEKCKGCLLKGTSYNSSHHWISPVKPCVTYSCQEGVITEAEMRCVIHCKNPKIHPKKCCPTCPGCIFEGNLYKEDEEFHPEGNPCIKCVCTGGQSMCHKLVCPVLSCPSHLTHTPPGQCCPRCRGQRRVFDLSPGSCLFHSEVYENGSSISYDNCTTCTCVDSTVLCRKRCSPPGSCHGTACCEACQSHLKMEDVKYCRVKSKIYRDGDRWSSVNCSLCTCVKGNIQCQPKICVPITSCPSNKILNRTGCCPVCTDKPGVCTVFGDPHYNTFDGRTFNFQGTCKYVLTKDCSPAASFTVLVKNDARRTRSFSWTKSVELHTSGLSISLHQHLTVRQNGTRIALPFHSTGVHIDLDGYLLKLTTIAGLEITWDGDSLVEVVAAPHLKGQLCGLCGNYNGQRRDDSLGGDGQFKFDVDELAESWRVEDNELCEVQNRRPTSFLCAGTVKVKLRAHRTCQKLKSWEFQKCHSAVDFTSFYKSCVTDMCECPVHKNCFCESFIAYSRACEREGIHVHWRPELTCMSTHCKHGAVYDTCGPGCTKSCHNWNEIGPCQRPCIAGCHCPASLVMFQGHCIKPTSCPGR
Consider B2, for which the Kd in assay [1] was determined as 180 nM; in assay [2], 178 nM; in assay [3], 50000 nM.
